Measurements reported in article PMC4603797, “The Structural Differences between a Glycoprotein Specific F-Box Protein Fbs1 and Its Homologous Protein FBG3” (PLoS ONE, 2015).
Substitutions are numbered along the chain they refer to. Blank lines part the entries; values can stand above or below the molecule they belong to.

Key:
[1] = target: ribonuclease B (UniProt P61823); assay: pull-down; settings: read off a plot; for percent of parent: parent: est. 100; for other: Relative RNase B binding (% of Skp1–Fbs1 wild type control): parent: n.d.
[2] = target: ribonuclease B (UniProt P61823); assay: pull-down; settings: parent: est. 100; read off a plot
[3] = target: T1, Fbs1 SBD A217C (murine, UniProt Q80UW2 117-297, A217C); assay: pull-down; His-tagged Fbs1 SBDs (15 μg) immobilised on Ni-NTA agarose, incubated with 10.7 μg RNase B at 4°C for 1 h; 20 mM Tris-HCl pH 7.5, 20 mM imidazole, 500 mM NaCl; SDS-PAGE, CBB staining, densitometry; settings: both partners purified
T1 construct: Fbs1/FBXO2, murine, SBD residues 117-297; Made with the KOD-Plus Mutagenesis kit; source: E. coli (pET15b), purified (Ni-NTA, gel filtration)
T1 sequence (looked up): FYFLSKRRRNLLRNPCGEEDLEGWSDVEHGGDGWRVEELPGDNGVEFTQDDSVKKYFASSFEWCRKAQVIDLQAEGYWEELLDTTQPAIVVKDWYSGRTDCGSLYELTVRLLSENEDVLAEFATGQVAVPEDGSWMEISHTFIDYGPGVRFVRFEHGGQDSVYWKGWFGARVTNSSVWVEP

[4] = target: T2, Fbs1 SBD L220K (murine, UniProt Q80UW2 117-297, L220K); assay: as above; settings: both partners purified
T2 construct: Fbs1/FBXO2, murine, SBD residues 117-297; Made with the KOD-Plus Mutagenesis kit; source: E. coli (pET15b), purified (Ni-NTA, gel filtration)
T2 sequence (looked up): T1 sequence (looked up) with C101A, L104K

[5] = target: T3, Fbs1 SBD T215P (murine, UniProt Q80UW2 117-297, T215P); assay: as above; settings: both partners purified
T3 construct: Fbs1/FBXO2, murine, SBD residues 117-297; Made with the KOD-Plus Mutagenesis kit; source: E. coli (pET15b), purified (Ni-NTA, gel filtration)
T3 sequence (looked up): T1 sequence (looked up) with T99P, C101A

[6] = target: T4, SBD of Fbs1 (117–297), wild type (murine, UniProt Q80UW2 117-297); assay: as above; settings: both partners purified
T4 construct: In pET15b; also called Fbs1 SBD; Fbs1 wild type; source: E. coli Rosetta (DE3), purified (Ni-NTA, gel filtration)
T4 sequence (looked up): T1 sequence (looked up) with C101A

percent of parent [1]: 62%
Molecule: SBD of Fbs1 (117–297), wild type (from UniProt Q80UW2) loop β2-3 of Fbs1 replaced by that of FBG3

percent of parent [2]: 25%
percent of parent [1]: 28%
Molecule: SBD of Fbs1 (117–297), wild type (from UniProt Q80UW2) loop β5-6 of Fbs1 replaced by that of FBG3

percent of parent [1]: 96%
Molecule: SBD of Fbs1 (117–297), wild type (from UniProt Q80UW2) loop β7-8 of Fbs1 replaced by that of FBG3

percent of parent [1]: 110%
Molecule: SBD of Fbs1 (117–297), wild type (from UniProt Q80UW2) loop β9-10 of Fbs1 replaced by that of FBG3

percent of parent [1]: 12%
Molecule: SBD of Fbs1 (117–297), wild type (from UniProt Q80UW2) loops β2-3/β5-6 of Fbs1 replaced by those of FBG3

percent of parent [1]: 2.5%
Molecule: SBD of Fbs1 (117–297), wild type (from UniProt Q80UW2) loops β2-3/β5-6/β7-8/β9-10 of Fbs1 replaced by those of FBG3

other: Relative RNase B binding (% of Skp1–Fbs1 wild type control) [1]: 84%
Molecule: Skp1–FBG3 complex, wild type (His-tagged Skp1) (from UniProt P63208;Q9H4M3) loops β2-3/β5-6/β7-8 of FBG3 replaced by those of Fbs1

other: Relative RNase B binding (% of Skp1–Fbs1 wild type control) [1]: 78%
Molecule: Skp1–FBG3 complex, wild type (His-tagged Skp1) (from UniProt P63208;Q9H4M3) loops β2-3/β5-6/β7-8/β9-10 of FBG3 replaced by those of Fbs1

binding result [3]: binds
binding result [4]: binds
binding result [5]: binds
binding result [6]: binds
B1: ribonuclease B (enzyme, bovine, UniProt P61823 27-150, looked up)
chain: KETAAAKFERQHMDSSTSAASSSNYCNQMMKSRNLTKDRCKPVNTFVHESLADVQAVCSQKNVACKNGQTNCYQSYSTMSITDCRETGSSKYPNCAYKTTQANKHIIVACEGNPYVPVHFDASV
modifications: a single high-mannose oligosaccharide
notes: ribonuclease B (glycosylated pancreatic ribonuclease), bovine pancreas; The Fbs proteins recognise the N-glycan of this glycoprotein; also called RNase B; source: bought: Sigma Aldrich (from bovine pancreas)
